# Source: patent US20210363224A1 (CONSEJO SUPERIOR DE INVESTIGACIONES CIENT FICAS, published 2021)
# Molecular target: T1, Recombinant human IL13 (PeproTech) (human, UniProt P35225 35-146, limits assumed)
# T1 construct: Bought reagent; also called interleukin 13
# Assay: SPR, BIAcore 3000, IL-13 amine-coupled to CM5 sensor chip (7700 RU), peptide as analyte
# Protocol: Binding of D1 peptide to IL-13 was monitored by surface plasmon resonance on a BIAcore 3000 instrument (BIAcore Inc, Switzerland). IL-13 was covalently amino coupled to a CM-5 sensor chip. An immobilization level of 7700 RU was obtained. A nonderivatized flow cell was used as a control. The interaction between D1 peptide and the immobilized IL13 was determined by changes in the RU at different D1 concentrations.
# A direct quantitative analytical method as Biacore was used to determine the affinity of the D1 peptide binding to IL-13 (FIG. 3C). Some limitations in the quantitative adjustment to the established models of the Biacore instrument caused a difficult interpretation of the results and impede an accurate determination of the affinity.
# T1 sequence (P35225 35-146 limits assumed): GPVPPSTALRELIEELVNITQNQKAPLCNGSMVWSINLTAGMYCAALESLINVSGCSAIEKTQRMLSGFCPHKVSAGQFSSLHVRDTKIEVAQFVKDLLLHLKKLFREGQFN
binder,measurement,value
GSETWKTIITKN (Made by solid phase synthesis; also called peptide IL13Rα2 D1; L-version) [IL13Rα2D1 peptide (GSETWKTIITKN)],Kd,~100 µM
